# Target: T1, 寨卡病毒包膜蛋白的结构域III (ZIKV-EDⅢ抗原) (Zika virus (strain NCBI KU740184.2))
# T1 construct: domain: 结构域III (EDIII); also called ZIKV-EDIII; ZIKV EDIII
# Assay: SPR (OpenSPR, COOH chip), ZIKV-EDIII immobilised, nanobody as analyte, 1:1 model
binder,measurement,value
"纳米抗体Nb-E5 (VHH, no removal of the tag is told, and detection used anti-SMT3 / anti-His antibodies; From a naive alpaca phage library; not shown: 6×His tag at the N-terminus of SUMO (pET-28a-SUMO vector)) VHH: SDSEVNQEAKPEVKPEVKPETHINLKVSDGSSEIFFKIKKTTPLRRLMEAFAKRQGKEMDSLRFLYDGIRIQADQTPEDLDMEDNDIIEAHREQIGGMAVQLVESGGGLVQPGGSLRLSCKVSGRPFTTYALGWFRQAPGKEREFLTVGAWRGQIFTAESVRGRFTISLDTAKNTFDLQMNSLNIEDTAVYYCAAGSRSSNTPQADPGSFDYWGQGTQVTVSSGAR",Kd,8.22 nM

# Reference: patent publication CN116063469A (UNIV ZHONGSHAN, dated 2023)
